Test results as given in publication PMC9237740, “SNARE SYP132 mediates divergent traffic of plasma membrane H^+-ATPase AHA1 and antimicrobial PR1 during bacterial pathogenesis” (Plant Physiology, 2022).

Target: T1, GFP-fused SYP132 (SYNTAXIN OF PLANTS132) expressed under its native promoter (Arabidopsis thaliana, UniProt Q8VZU2 1-304)
T1 construct: SYNTAXIN OF PLANTS132 (SYP132), Arabidopsis thaliana, At5g08080; also called GFP-SYP132; SYP132p:GFP-SYP132; source: Arabidopsis SYP132p:GFP-SYP132 transgenic line, in leaf lysate
T1 sequence (looked up): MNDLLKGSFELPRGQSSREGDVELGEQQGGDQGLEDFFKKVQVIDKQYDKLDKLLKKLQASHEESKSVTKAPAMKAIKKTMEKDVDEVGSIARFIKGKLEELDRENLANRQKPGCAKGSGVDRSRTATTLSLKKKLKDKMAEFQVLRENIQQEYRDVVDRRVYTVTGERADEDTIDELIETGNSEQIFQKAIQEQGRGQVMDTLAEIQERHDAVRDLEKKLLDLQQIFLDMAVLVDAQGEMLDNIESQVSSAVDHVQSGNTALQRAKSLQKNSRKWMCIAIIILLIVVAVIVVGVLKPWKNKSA
Assay: co-IP; GFP-Trap agarose beads saturated with GFP-tagged bait from Arabidopsis leaf lysates; plants treated 24 h without or with Pst DC3000 in 10 mM MgCl2; binding buffer PBS pH 7.45, 0.01% Triton X-100, 0.05 mM DTT, 0.01% CHAPS, 1 h at 4°C; washes with additional 150 mM NaCl; bound proteins detected by immunoblot
Details: partners not purified

- fold change of Co-IP bound/bait after Pst DC3000 infection relative to buffer control: ~2.5 fold
B1: PM H+-ATPase 1 (AHA1), native (natural protein, UniProt P20649 1-949, looked up)
chain: MSGLEDIKNETVDLEKIPIEEVFQQLKCTREGLTTQEGEDRIVIFGPNKLEEKKESKILKFLGFMWNPLSWVMEAAALMAIALANGDNRPPDWQDFVGIICLLVINSTISFIEENNAGNAAAALMAGLAPKTKVLRDGKWSEQEAAILVPGDIVSIKLGDIIPADARLLEGDPLKVDQSALTGESLPVTKHPGQEVFSGSTCKQGEIEAVVIATGVHTFFGKAAHLVDSTNQVGHFQKVLTSIGNFCICSIAIGIAIEIVVMYPIQHRKYRDGIDNLLVLLIGGIPIAMPTVLSVTMAIGSHRLSQQGAITKRMTAIEEMAGMDVLCSDKTGTLTLNKLSVDKNLVEVFCKGVEKDQVLLFAAMASRVENQDAIDAAMVGMLADPKEARAGIREVHFLPFNPVDKRTALTYIDSDGNWHRVSKGAPEQILDLANARPDLRKKVLSCIDKYAERGLRSLAVARQVVPEKTKESPGGPWEFVGLLPLFDPPRHDSAETIRRALNLGVNVKMITGDQLAIGKETGRRLGMGTNMYPSAALLGTDKDSNIASIPVEELIEKADGFAGVFPEHKYEIVKKLQERKHIVGMTGDGVNDAPALKKADIGIAVADATDAARGASDIVLTEPGLSVIISAVLTSRAIFQRMKNYTIYAVSITIRIVFGFMLIALIWEFDFSAFMVLIIAILNDGTIMTISKDRVKPSPTPDSWKLKEIFATGIVLGGYQAIMSVIFFWAAHKTDFFSDKFGVRSIRDNNDELMGAVYLQVSIISQALIFVTRSRSWSFVERPGALLMIAFVIAQLVATLIAVYADWTFAKVKGIGWGWAGVIWIYSIVTYFPQDILKFAIRYILSGKAWASLFDNRTAFTTKKDYGIGEREAQWAQAQRTLHGLQPKEDVNIFPEKGSYRELSEIAEQAKRRAEIARLRELHTLKGHVESVAKLKGLDIDTAGHHYTV
notes: Plasma membrane H+-ATPase 1 (AHA1), Arabidopsis thaliana, At2g18960; detected with anti-AHA1 antibodies at ~100 kDa; also called AHA1 isoform; plasma membrane H+-ATPase AHA1; source: endogenous, Arabidopsis leaf lysate
